Assay results reported in publication PMC4986892 (RNA, 2016).
Values belong to the binder of their own block, whether it stands above or below them.

Legend:
[1] = biological target: T1, S. pombe Dcp1:Dcp2RD decapping complex (S. pombe, UniProt Q9P805;O13828); assay: NMR titration
T1 sequence 1: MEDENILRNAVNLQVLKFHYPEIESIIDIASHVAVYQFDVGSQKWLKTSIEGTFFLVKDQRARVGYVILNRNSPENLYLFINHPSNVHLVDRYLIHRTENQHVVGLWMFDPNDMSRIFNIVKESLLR
T1 sequence 2: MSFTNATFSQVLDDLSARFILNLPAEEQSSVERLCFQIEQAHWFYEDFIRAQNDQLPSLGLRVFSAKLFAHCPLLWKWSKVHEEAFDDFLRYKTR

[2] = biological target: T1, S. pombe Dcp1:Dcp2RD decapping complex; assay: fluorescence polarisation
[3] = biological target: T2, S. pombe Dcp1:Dcp2_(RD+CD) decapping complex (S. pombe, UniProt Q9P805;O13828); assay: fluorescence polarisation
T2 sequence 1: T1 sequence 1
T2 sequence 2: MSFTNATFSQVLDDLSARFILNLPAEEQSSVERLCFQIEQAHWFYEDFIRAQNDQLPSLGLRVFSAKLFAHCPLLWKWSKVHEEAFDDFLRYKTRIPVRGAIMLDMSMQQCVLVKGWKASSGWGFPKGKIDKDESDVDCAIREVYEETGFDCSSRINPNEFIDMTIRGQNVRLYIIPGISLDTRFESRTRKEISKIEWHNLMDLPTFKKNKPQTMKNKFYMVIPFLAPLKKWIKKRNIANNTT

[4] = biological target: T1, S. pombe Dcp1:Dcp2RD decapping complex; assay: NMR titration; remark: listed apart in the source
S. pombe Dcp1 = biological target: T3, S. pombe Dcp1 (S. pombe, UniProt Q9P805); assay: NMR titration
T3 sequence: T1 sequence 1

- binding result [4]: binds
Binder: SFSSNSSSDTNSILYAGPTFTHSPAASNLPIPTFLHSP [S. pombe Edc1 (144–181), as used for NMR]

- binding result (S. pombe Dcp1): binds
B3: S. pombe Dcp2 C-terminal tail (267–350) (domain or fragment)
chain: STAPSDLATPQPSTFPQPPVESHSSFDIKQKILHLLNEGNEPKSPIQLPPVSNLPLNPPIQSSNSRLSHDNNSFDPFAYLGLDP

- binding result [4]: binds
B4: S. pombe Xrn1 (1201–1328) (domain or fragment)
chain: TNPQFVVNTRAGKNRKTNVSANNVSQGTDSRLVTKPTSTFPSPPSPPSSSVWNKREHHPKPFSLHQVPPPESLIHKSKSKFSKGNHHSTNGTQSIRGRGGKRGKPLRSKELNRKHDHIVQPMGKLQIN

Further lines, the binder ahead of its results:

Binder: VSQGTDSRLVTKPTSTFPSPPSPPSSSVWNKREH [S. pombe Xrn1 (1224–1257)]
- Kd [1]: 640000 ± 170000 nM

B1: Fluorescently labeled S. pombe Edc1 1–221 (S183C) (domain or fragment)
chain: MQKDIGRRFQRNKKKINSKPGGAMVASSDVEFSLDGMSIMPQRDGNLQIPNFVKPKSTFATSNIGESNGKRNGDKVRGNRRSKSGHSSYAGSRISGGNSNSHLPSGVASAPAGLGIDKVAVGEVDSHLKSVSSYVSNSSGADRSFSSNSSSDTNSILYAGPTFTHSPAASNLPIPTFLHSPVCEKAEWQPPTGSVNSNMPFQFHQSSSVPSTPSEVAMGHN
modifications: 5-(iodoacetamido)-fluorescein on the cysteine introduced by S183C (labeling efficiency ~50%)
- Kd [2]: 143 nM
- Kd [3]: 250 nM

Binder: GTEIQPIPPSIDPSLYVFP [S. pombe Dhh1 (401–419)]
- binding result [4]: binds

Binder: APSDLATPQPSTFPQPPVESHSSFDIKQKILHLLNEGNEPKSPI (domain or fragment) [S. pombe Dcp2 C-terminal region (269–312)]
- Kd [1]: 310000 ± 110000 nM

B2: S. pombe Edc1 (144–215) (domain or fragment)
chain: SFSSNSSSDTNSILYAGPTFTHSPAASNLPIPTFLHSPVSEKAEWQPPTGSVNSNMPFQFHQSSSVPSTPSE
- Kd [3]: 415 nM
